B1: hybridoma-derived 139H2 IgG (antibody, V domains shown)
VH: QVQLQQSGAELVKPGASVKLSCKASGYTFTNYYMYWVLQRPGQGLEWIGEINPSNGGTTFNEKFKNKATLTVDKSSSTAYMQLNSLTSEDSAVYYCTRSRYGNYVNYGMDYWGQGTSVTVSS
VL: DIVMSQSPSSLAVSVGEKVTMSCKSSQSLLYSNTQKNYLAWYQQKPGQSPKLLIYWASTRESGVPDRFTGSGSGTDFTLTISSVKAENLAVYYCQQYYRYPPTFGGGTKLELK
notes: as the heavy-chain variable domain of m1 (IGHV1-53); as the light-chain variable domain of m1 (IGKV8-30); mouse kappa light-chain constant region; Mouse IgG1, kappa; also called original hybridoma-derived 139H2; 139H2 WT; source: hybridoma culture supernatant (gift, NKI), purified (Protein G Sepharose); copies: 2 + 2
B2: recombinant (reverse-engineered) 139H2 IgG (antibody, V domains shown)
VH: QVQLQQSGAELVKPGASVKLSCKASGYTFTNYYMYWVLQRPGQGLEWIGEINPSNGGTTFNEKFKNKATLTVDKSSSTAYMQLNSLTSEDSAVYYCTRSRYGNYVNYGMDYWGQGTSVTVSS
VL: DIVMSQSPSSLAVSVGEKVTMSCKSSQSLLYSNTQKNYLAWYQQKPGQSPKLLIYWASTRESGVPDRFTGSGSGTDFTLTISSVKAENLAVYYCQQYYRYPPTFGGGTKLELK
notes: also in PDB 8P6I; standard mouse Ig gamma-1 (IGHG1) constant region, linker and Fc region, UniProt P01868.1; mouse kappa light-chain constant region (kappa light-chain backbone); Mouse IgG1, kappa; also called synthetic recombinant 139H2; recombinant 139H2; source: HEK293 cells (ImmunoPrecise Antibodies), culture supernatant, purified (HisTrap Excel); copies: 2 + 2
B3: recombinant 139H2 Fab fragment (Fab, V domains shown)
VH: QVQLQQSGAELVKPGASVKLSCKASGYTFTNYYMYWVLQRPGQGLEWIGEINPSNGGTTFNEKFKNKATLTVDKSSSTAYMQLNSLTSEDSAVYYCTRSRYGNYVNYGMDYWGQGTSVTVSS
VL: DIVMSQSPSSLAVSVGEKVTMSCKSSQSLLYSNTQKNYLAWYQQKPGQSPKLLIYWASTRESGVPDRFTGSGSGTDFTLTISSVKAENLAVYYCQQYYRYPPTFGGGTKLELK
notes: as the heavy-chain variable domain of m1 (IGHV1-53); mouse Ig gamma-1 (IGHG1) Fab constant region; as the light-chain variable domain of m1 (IGKV8-30); mouse kappa light-chain constant region, as in m1; also called monovalent Fab fragment; anti-MUC1 Fab; source: HEK293 cells (ImmunoPrecise Antibodies), culture supernatant, purified (HisTrap Excel, Superdex 200 SEC)

Target: T1, full-length MUC1 glycoprotein of HT29-MTX cells (Homo sapiens, HT29-MTX cells, UniProt P15941, VNTR heavily O-linked glycosylated)
T1 construct: Mucin 1 (MUC1), endogenous in the human colon cancer cell line HT29-MTX; band at an estimated 600 kD; written here as one chain; also called Mucin 1; source: endogenous, HT29-MTX lysate (Western blot) and fixed, permeabilized HT29-MTX monolayers (immunofluorescence)
Assay: far-Western, overlay or dot blot; immunoblot of SDS lysates of HT29-MTX and HT29-MTX ΔMUC1 cells on a mucin-SDS gel, PVDF; 139H2 antibodies 1:1,000 in TSMT with 1% BSA, 1 h at RT; detected with anti-mouse IgG
Conditions: one partner purified

T1 sequence (P15941 24-1255): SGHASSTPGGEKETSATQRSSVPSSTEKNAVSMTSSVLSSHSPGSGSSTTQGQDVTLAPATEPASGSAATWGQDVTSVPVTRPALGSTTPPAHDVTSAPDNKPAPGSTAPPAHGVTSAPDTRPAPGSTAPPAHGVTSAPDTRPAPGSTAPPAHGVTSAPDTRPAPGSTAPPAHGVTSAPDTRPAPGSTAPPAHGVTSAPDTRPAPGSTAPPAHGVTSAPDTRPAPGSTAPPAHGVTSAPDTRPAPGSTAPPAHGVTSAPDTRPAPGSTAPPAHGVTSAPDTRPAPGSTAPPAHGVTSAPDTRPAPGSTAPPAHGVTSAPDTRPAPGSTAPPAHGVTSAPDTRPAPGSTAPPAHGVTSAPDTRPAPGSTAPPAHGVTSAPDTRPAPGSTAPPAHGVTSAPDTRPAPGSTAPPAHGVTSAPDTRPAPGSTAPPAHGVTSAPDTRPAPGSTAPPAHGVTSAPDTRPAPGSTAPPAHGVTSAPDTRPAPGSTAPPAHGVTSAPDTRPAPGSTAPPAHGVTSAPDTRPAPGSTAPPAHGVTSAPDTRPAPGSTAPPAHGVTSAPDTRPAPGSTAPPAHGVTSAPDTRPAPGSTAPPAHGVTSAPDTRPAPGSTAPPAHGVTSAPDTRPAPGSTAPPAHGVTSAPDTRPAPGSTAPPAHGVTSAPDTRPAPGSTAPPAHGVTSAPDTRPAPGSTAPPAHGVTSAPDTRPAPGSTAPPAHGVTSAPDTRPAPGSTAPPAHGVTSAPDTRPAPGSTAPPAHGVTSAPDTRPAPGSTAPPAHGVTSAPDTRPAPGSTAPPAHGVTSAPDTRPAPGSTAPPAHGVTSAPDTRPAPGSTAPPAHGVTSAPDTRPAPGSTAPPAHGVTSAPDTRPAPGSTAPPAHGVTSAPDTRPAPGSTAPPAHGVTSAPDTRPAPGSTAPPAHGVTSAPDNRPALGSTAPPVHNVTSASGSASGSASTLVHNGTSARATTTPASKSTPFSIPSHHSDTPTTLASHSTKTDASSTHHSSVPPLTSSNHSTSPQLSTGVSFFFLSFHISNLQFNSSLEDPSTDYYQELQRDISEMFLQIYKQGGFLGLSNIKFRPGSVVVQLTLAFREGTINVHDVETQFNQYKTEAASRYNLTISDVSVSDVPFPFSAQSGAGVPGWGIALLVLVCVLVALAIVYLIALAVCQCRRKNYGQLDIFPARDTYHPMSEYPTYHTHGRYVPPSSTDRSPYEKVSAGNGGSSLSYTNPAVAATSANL

Row | Binder | binding result
1 | B1 | binds
2 | B2 | binds
3 | B3 | binds
